Experimental data reported in IntAct's records for PubMed 19523899.

B1: Tyrosine-protein phosphatase non-receptor type 23 (Mus musculus), Q6PB44 (parent)
chain: MEAVPRMPMIWLDLKEAGDFHFQSAVKKFVLKNYGENPEAYNEELKKLELLRQNAIRVARDFEGCSVLRKYLGQLHYLQSRVPMGSGQEAAVAVTWTEIFSGKSVSHEDIKYEQACILYNLGALHSMLGAMDKRVSEEGMKVSCTHFQCAAGAFAYLREHFPQAFSVDMSRQILTLNVNLMLGQAQECLLEKSMLDNRKSFLVARISAQVVDYYKEACRALENPDTASLLGRIQKDWKKLVQMKIYYFAAVAHLHMGKQAEEQQKFGERVAYFQSALDKLNEAIKLAKGQPDTVQDALRFAMDVIGGKYNSAKKDNDFIYHEAVPALDTLQPVKGAPLVKPLPVNPTDPAVTGPDIFAKLVPMAAHEASSLYSEEKAKLLREMLAKIEDKNEVLDQFMDSMQLDPETVDNLDAYNHIPPQLMEKCAALSVRPDTVKNLVQSMQVLSGVFTDVEASLKDIRDLLEEDELQEQKLQETLGQAGAGPGPSVAKAELAEVRREWAKYMEVHEKASFTNSELHRAMNLHVGNLRLLSGPLDQVRAALPTPALTPEDKAVLQNLKRILAKVQEMRDQRVSLEQQLRELIQKDDITASLVTTDHSEMKKLFEEQLKKYDQLKVYLEQNLAAQDNVLRALTEANVQYAAVRRVLSELDQKWNSTLQTLVASYEAYEDLMKKSQEGKDFYADLESKVATLLERAQSICRAQEAARQQLLDRELKKKAPPPRPTAPKPLLSRREEGEAVEAGDTPEELRSLPPDMMVGPRLPDPFLGTTAPLHFSPGPFPSSTGPATHYLSGPLPPGTYSGPTQLMQPRAAVPMAPATVLYPAPAYTSELGLVPRSSPQHGIVSSPYAGVGPPQPVVGLPSAPPPQLSGPELAMTVRPATTTVDSVQAPISSHTAPRPNPTPALPQPCFPVPQPVPQSVPQPQPLPVPYTYSIGTKQPLPAPYTYSIGTKQHLTGPLPQHQFPPGIPTGFPVPRTGPQAQAQPQPQPQPQPQPQPQPQPQPQPQSQSQPQPQPQPQPQRPAFGPQPTQQPLPFQHPHLFPSQAPGILPPPPPTPYHFTPQPGVLGQPPPTLHTQLYPGPSQDPLPPHSGALPFPSPGPPHPHPTLAYGPAPSPRPLGPQATPVSIRGPPPASQPTPSPHLVPSPAPSPGPGPVPSRPPTAEPPPCLRRGAAAADLLSSSPESQHGGTQPPGGGQPLLQPTKVDAAEGRRPQALRLIEQDPYEHPERLQQLQQELEAFRGQLGDAGALDAIWRELQEAQEHDARGRSIAIARCYSLKNRHQDVMPYDSNRVVLRSGKDDYINASCVEGLSPYCPPLVATQAPLPGTAADFWLMVHEQKVSVIVMLVSEAEMEKQKVARYFPTERGQPMVHGALSVALSSIRTTETHVERVLSLQFRDQSLKRSLVHLHFPTWPELGLPDSPGNLLRFIQEVHAHYLHQRPLHTPIVVHCSSGVGRTGAFALLYAAVQEVEAGNGIPELPQLVRRMRQQRKHMLQEKLHLKFCHEALVRHVEQVLQRHGVPPPGKPVASVNISQKNHLPQDSQDLVLGGDVPISSIQATIAKLSIRPLGGLDSPAASLPGLVEPPGLPPASLPESTPVPSSSPPPLSSPLPEAPQPEEEPSVPEAPSLGPPSSSLELLASLTPEAFSLDSSLRGKQRMSKQNFLQAHNGQGLRAAQPTDDPLSLLDPLWTLNKT
partner: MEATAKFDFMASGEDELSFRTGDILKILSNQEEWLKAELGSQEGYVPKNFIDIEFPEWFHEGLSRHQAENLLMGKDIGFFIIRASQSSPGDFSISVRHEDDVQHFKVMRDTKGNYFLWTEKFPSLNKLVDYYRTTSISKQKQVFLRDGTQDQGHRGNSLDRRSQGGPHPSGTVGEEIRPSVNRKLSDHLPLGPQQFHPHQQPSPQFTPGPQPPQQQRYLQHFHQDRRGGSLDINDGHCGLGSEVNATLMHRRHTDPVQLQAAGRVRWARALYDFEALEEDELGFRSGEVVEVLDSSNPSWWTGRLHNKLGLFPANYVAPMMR

Variants of: B1
Conditions: with grap2_mouse Grap2, O89100

Variant | effect of a mutation on the interaction
P720A;R722A | disrupting interaction
R722A | decreasing interaction
K727A | decreasing interaction strength
K727A;P728A | disrupting interaction strength
K727H | decreasing interaction strength
